The numbers were not newly measured in PMC5487772, which cites them from elsewhere.

Like-named read-outs stand apart in the source and are kept apart here.

The target in data set [1] is phosphacan (UniProt Q62656).
In data set [2] the target is phosphacan (UniProt Q62656). The source holds these as a separate data set.

Chain of UniProt Q62656 (Q62656 25-1637): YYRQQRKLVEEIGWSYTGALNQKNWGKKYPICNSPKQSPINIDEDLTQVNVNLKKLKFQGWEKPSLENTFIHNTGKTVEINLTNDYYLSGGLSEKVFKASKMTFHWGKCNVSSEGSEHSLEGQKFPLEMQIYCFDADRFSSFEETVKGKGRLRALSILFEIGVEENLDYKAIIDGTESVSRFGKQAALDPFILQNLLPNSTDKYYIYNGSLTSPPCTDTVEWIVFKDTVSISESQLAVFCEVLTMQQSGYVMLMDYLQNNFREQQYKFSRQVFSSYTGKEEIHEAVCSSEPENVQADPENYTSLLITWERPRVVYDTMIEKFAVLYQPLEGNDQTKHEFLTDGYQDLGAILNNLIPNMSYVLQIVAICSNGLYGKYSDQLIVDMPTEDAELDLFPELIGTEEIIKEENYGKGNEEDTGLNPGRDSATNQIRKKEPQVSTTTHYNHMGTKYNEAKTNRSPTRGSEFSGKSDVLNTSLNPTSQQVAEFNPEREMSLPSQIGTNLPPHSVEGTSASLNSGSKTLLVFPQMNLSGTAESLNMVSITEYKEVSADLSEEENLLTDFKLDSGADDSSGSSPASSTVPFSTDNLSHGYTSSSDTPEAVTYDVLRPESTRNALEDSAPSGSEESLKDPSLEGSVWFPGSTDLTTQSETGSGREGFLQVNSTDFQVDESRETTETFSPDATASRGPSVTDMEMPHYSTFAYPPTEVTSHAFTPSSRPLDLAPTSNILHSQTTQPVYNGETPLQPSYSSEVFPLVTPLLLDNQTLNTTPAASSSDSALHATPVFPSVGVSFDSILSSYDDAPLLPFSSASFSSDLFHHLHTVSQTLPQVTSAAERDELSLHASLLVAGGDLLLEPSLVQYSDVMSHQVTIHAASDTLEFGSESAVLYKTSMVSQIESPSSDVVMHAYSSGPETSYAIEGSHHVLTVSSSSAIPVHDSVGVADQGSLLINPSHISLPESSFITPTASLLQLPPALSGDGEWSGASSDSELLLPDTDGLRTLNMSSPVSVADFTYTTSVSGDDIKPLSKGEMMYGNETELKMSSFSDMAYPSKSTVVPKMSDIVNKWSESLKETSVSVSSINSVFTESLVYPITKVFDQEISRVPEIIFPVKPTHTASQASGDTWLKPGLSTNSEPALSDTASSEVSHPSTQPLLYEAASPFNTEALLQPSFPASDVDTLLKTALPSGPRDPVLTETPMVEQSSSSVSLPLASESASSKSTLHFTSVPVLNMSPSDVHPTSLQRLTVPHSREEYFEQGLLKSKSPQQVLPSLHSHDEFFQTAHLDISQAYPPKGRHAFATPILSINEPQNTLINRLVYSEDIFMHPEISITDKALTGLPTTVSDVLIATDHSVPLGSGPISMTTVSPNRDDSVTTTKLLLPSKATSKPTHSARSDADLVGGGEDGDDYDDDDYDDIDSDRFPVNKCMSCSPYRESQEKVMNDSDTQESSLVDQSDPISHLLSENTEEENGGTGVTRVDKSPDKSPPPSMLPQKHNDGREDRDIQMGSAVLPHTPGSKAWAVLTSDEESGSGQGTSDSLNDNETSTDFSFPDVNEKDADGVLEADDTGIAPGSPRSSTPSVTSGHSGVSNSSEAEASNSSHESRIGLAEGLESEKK

As for N-CAM (from UniProt P13591), the equilibrium dissociation constant (Kd) in data set [1] was 0.5 nM.

As to Ng-CAM (from UniProt Q03696), the Kd in data set [2] was 0.5 nM.

A word on the Kd: it is the free concentration of one partner at which half of the binding sites on the other are occupied at equilibrium, for simple one-to-one binding.
